# Measured values published in article PMC3969221 (2014).
# Target: Cry1AbMod protoxin (Bacillus thuringiensis, UniProt P0A370 1-1155)
# Experiment: ELISA
binder,measurement,value
Manduca sexta cadherin protein fragment (CR7–CR12) (domain or fragment) MIDFLTGQISVNTSGAIDADTPPRFHLYYTVVASDRCSTEDPADCPPDPTYWETEGNITIHITDTNNKVPQAETTKFDTVVYIYENATHLDEVVTLIASDLDRDEIYHTVSYVINYAVNPRLMNFFSVNRETGLVYVDYETQGSGEVLDRDGDEPTHRIFFNLIDNFMGEGEGNRNQNDTEVLVILLDVNDNAPELPPPSELSWTISENLKQGVRLEPHIFAPDRDEPDTDNSRVGYEILNLSTERDIEVPELFVMIQIANVTGELETAMDLKGYWGTYAIHIRAFDHGIPQMSMNETYELIIHPFNYYAPEFVFPTNDAVIRLARERAVINGVLATVNGEFLERISATDPDGLHAGVVTFQVVGDEESQRYFQVVNDGENLGSLRLLQAVPEEIREFRITIRATDQGTDPGPLSTDMTFRVVFVPTQGEPRFASSEHAVAFIEKSAGMEESHQLPLAQDIKNHLCEDDCHSIYYRIIDGNSEGHFGLDPVRNRLFLKKELIREQSASHTLQVAASNSPDGGIPLPASILTVTVTVREADPRPVFVRELYTAGISTADSIGRELLRLHATQSEGSAITYAIDYDTMVVDPSLEAVRQSAFVLNAQTGVLTLNIQPTATMHGLFKFEVTATDTAGAQDRTDVTVYVVSSQNRVYFVFVNTLQQVEDNRDFIA,Kd,6.8 nM
